# Laboratory results as given in patent US20130011380A1.
# How the values were obtained:
# Experiment in all cases: anti-Flag IP-MS, mES nuclear extract
# Ywhae (mouse) = Ywhae (mouse) (UniProt P62259)
# Smarcad1 (mouse) = Smarcad1 (mouse) (UniProt Q04692)
# Hspa5 (mouse) = Hspa5 (mouse) (UniProt P20029)
# Akap8 (mouse) = Akap8 (mouse) (UniProt Q9DBR0)
# Mcm4 (mouse) = Mcm4 (mouse) (UniProt P49717)
# Alpl (mouse) = Alpl (mouse) (UniProt P09242)
# Rcc1 (mouse) = Rcc1 (mouse) (UniProt Q8VE37)
# Mcm3 (mouse) = Mcm3 (mouse) (UniProt P25206)
# Rfc2 (mouse) = Rfc2 (mouse) (UniProt Q9WUK4)
# Zfp655 (mouse) = Zfp655 (mouse) (UniProt Q9CZP3)
# Peg10 (mouse) = Peg10 (mouse) (UniProt Q7TN75)
# Col18a1 (mouse) = Col18a1 (mouse) (UniProt P39061)
# Ctbp2 (mouse) = Ctbp2 (mouse) (UniProt P56546)
# Nup214 (mouse) = Nup214 (mouse) (UniProt Q80U93)
# Spna2 (mouse) = Spna2 (mouse) (UniProt P16546)
# Utf1 (mouse) = Utf1 (mouse) (UniProt Q6J1H4)
# Ywhaz (mouse) = Ywhaz (mouse) (UniProt P63101)
# Dnajb6 (mouse) = Dnajb6 (mouse) (UniProt O54946)
# Tmem48 (mouse) = Tmem48 (mouse) (UniProt Q8VCB1)
# Dnaja3 (mouse) = Dnaja3 (mouse) (UniProt Q99M87)
# Pcnt (mouse) = Pcnt (mouse) (UniProt P48725)
# Rangap1 (mouse) = Rangap1 (mouse) (UniProt P46061)
# Kars (mouse) = Kars (mouse) (UniProt Q99MN1)
# Tubb6 (mouse) = Tubb6 (mouse) (UniProt Q922F4)
# Copa (mouse) = Copa (mouse) (UniProt Q8CIE6)
# Nup160 (mouse) = Nup160 (mouse) (UniProt Q9Z0W3)
# Uba1 (mouse) = Uba1 (mouse) (UniProt Q02053)
# Ruvbl1 (mouse) = Ruvbl1 (mouse) (UniProt P60122)
# Lmnb2 (mouse) = Lmnb2 (mouse) (UniProt P21619)
# Hdlbp (mouse) = Hdlbp (mouse) (UniProt Q8VDJ3)
# Cbx5 (mouse) = Cbx5 (mouse) (UniProt Q61686)
# Psmc5 (mouse) = Psmc5 (mouse) (UniProt P62196)
# Rfc5 (mouse) = Rfc5 (mouse) (UniProt Q9D0F6)
# Cul4b (mouse) = Cul4b (mouse) (UniProt A2A432)
# Tex10 (mouse) = Tex10 (mouse) (UniProt Q3URQ0)
# Ywhab (mouse) = Ywhab (mouse) (UniProt Q9CQV8)
# Cnot1 (mouse) = Cnot1 (mouse) (UniProt Q6ZQ08)
# Pfn1 (mouse) = Pfn1 (mouse) (UniProt P62962)
# Ncapg (mouse) = Ncapg (mouse) (UniProt E9PWG6)
# Gart (mouse) = Gart (mouse) (UniProt Q64737)
# Gart (mouse), sequence (Q64737 2-1010 limits assumed): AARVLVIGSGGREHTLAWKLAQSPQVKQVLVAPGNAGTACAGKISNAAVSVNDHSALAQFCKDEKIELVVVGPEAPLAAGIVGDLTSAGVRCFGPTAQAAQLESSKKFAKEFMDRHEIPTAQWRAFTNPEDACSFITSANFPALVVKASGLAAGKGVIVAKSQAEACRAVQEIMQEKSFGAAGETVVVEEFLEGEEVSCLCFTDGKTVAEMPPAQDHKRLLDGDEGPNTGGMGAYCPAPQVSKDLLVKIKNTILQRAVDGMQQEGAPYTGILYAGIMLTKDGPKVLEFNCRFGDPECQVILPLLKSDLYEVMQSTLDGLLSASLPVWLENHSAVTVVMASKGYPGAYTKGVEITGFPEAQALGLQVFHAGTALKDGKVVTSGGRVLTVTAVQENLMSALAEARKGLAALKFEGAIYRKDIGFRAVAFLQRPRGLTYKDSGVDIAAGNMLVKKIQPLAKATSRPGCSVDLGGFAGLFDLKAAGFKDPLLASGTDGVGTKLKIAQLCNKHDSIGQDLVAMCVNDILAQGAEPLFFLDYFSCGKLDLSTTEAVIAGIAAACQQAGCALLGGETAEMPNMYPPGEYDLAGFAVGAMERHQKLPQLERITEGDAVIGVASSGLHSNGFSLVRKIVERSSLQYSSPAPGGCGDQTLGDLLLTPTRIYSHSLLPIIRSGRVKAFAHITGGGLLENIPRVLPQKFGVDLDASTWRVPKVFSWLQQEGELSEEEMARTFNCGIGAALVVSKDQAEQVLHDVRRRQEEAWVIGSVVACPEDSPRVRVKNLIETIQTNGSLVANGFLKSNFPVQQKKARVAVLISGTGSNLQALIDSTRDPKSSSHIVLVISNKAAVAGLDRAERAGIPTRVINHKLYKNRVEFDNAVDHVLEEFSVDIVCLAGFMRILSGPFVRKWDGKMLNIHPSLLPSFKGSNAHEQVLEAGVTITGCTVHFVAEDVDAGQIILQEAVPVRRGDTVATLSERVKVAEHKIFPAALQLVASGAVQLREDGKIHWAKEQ
# Ywhae (mouse), sequence (P62259 whole entry): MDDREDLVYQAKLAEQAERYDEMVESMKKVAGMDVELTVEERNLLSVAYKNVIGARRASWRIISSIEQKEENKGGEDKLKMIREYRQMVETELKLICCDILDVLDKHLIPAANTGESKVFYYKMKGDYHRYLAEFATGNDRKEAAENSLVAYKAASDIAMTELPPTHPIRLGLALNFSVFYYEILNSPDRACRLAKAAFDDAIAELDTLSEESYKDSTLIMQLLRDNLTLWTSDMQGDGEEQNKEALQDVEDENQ
# Pfn1 (mouse), sequence (P62962 2-140 limits assumed): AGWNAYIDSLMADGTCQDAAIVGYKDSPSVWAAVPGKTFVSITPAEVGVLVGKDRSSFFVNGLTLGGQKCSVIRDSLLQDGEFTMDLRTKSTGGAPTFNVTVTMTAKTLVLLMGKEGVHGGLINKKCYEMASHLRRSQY
# Ywhaz (mouse), sequence (P63101 whole entry): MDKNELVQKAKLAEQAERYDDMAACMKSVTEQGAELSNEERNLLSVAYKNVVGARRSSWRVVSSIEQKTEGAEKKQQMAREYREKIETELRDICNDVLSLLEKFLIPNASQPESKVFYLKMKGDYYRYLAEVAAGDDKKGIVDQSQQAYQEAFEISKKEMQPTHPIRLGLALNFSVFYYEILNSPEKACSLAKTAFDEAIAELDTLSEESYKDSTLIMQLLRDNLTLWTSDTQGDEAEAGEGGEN
# Tubb6 (mouse), sequence (Q922F4 whole entry): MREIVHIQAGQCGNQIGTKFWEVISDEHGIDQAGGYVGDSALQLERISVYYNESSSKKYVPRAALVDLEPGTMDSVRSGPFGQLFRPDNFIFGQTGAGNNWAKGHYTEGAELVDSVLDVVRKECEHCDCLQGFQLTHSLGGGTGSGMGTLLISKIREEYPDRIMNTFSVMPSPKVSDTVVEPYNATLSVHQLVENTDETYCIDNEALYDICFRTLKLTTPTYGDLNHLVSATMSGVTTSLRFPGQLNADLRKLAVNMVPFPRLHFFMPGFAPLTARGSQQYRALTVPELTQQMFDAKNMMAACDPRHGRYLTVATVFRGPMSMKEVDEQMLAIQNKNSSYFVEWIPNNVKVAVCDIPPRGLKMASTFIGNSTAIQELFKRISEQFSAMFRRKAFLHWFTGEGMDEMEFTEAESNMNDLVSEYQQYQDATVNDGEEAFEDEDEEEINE
# Peg10 (mouse), sequence (Q7TN75 whole entry): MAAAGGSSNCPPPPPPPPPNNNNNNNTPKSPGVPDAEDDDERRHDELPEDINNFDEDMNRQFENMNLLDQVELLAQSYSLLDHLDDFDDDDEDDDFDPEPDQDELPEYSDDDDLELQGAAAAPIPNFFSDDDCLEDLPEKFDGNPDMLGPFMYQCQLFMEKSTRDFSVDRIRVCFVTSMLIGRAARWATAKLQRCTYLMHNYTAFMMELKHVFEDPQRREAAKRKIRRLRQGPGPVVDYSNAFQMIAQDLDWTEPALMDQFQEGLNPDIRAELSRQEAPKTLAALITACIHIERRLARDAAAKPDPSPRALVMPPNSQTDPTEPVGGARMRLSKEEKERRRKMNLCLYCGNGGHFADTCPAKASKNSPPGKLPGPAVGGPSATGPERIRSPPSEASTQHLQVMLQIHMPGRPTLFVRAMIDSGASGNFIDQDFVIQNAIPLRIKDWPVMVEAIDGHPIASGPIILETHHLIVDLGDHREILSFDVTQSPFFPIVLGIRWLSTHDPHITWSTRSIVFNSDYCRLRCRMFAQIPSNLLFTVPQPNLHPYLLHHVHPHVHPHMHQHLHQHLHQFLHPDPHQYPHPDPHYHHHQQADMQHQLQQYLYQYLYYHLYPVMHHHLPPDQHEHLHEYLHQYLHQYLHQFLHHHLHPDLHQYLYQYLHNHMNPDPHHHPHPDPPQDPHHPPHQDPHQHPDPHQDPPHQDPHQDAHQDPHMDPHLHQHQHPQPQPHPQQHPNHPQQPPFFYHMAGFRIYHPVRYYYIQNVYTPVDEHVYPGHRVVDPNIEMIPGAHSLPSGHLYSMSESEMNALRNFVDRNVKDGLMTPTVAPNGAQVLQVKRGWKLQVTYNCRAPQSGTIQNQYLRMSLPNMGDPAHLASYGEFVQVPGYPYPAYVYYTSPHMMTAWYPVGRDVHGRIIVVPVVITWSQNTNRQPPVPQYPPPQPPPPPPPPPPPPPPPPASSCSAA
# Rangap1 (mouse), sequence (P46061 2-589 limits assumed): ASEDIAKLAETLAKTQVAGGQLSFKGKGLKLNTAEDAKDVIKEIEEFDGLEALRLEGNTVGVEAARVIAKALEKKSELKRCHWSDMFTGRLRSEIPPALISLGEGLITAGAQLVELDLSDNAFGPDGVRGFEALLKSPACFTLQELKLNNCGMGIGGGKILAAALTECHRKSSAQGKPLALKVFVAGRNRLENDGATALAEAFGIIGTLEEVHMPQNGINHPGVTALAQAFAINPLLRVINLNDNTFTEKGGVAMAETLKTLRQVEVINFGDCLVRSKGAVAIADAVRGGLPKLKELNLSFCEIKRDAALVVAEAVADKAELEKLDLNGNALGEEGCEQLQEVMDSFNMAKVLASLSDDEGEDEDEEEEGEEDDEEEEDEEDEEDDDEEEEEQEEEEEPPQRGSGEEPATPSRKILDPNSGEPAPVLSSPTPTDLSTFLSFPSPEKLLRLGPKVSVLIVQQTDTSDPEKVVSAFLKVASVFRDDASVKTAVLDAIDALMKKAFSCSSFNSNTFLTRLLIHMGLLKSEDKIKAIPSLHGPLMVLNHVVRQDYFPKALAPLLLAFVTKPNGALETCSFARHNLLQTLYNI
# Nup160 (mouse), sequence (Q9Z0W3 whole entry): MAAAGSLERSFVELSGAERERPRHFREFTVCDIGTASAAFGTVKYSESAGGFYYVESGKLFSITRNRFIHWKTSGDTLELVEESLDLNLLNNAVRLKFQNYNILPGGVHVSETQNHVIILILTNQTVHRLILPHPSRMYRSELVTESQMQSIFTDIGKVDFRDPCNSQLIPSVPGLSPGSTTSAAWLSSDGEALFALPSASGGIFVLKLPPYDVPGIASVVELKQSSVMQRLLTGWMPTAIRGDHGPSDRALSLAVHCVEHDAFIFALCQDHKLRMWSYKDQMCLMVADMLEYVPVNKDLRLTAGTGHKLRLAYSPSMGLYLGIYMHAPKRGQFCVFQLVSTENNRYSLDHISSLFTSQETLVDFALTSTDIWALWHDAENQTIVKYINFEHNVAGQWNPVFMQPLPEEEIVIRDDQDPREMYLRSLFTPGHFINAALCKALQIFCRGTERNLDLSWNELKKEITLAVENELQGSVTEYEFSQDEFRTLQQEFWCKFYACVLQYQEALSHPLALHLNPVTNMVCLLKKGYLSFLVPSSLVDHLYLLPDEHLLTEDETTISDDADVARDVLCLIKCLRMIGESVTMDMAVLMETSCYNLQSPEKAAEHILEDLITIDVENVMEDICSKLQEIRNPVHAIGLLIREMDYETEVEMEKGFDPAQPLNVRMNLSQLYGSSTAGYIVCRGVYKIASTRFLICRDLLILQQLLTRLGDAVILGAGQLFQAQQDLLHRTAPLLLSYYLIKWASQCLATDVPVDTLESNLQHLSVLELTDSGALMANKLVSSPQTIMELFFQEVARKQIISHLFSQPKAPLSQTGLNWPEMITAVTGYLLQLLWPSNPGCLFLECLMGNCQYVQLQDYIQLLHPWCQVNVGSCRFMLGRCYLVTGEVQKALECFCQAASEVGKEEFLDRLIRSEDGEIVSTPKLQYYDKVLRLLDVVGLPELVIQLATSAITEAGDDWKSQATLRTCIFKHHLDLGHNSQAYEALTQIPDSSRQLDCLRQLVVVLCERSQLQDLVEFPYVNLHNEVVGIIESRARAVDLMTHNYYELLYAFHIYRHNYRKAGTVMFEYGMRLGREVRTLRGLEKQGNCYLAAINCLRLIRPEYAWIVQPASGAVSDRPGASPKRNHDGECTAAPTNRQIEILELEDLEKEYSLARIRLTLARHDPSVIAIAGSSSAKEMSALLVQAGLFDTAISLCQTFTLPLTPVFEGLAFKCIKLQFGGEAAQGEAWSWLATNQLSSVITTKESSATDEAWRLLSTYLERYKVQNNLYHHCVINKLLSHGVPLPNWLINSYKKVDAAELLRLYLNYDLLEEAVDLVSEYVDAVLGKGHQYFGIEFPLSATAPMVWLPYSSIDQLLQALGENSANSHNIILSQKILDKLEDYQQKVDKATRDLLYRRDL
substance,measurement,setting,value
2x Flag tag only (control) (peptide),Nucleus peptide,Ywhae (mouse),1 peptides
same,Nucleus spectra,Ywhae (mouse),1 spectra
same,Nucleus peptide,Smarcad1 (mouse),1 peptides
same,Nucleus spectra,Smarcad1 (mouse),1 spectra
same,Nucleus peptide,Hspa5 (mouse),10 peptides
same,Nucleus spectra,Hspa5 (mouse),13 spectra
same,Nucleus peptide,Akap8 (mouse),0 peptides
same,Nucleus spectra,Akap8 (mouse),0 spectra
same,Nucleus peptide,Mcm4 (mouse),2 peptides
same,Nucleus spectra,Mcm4 (mouse),2 spectra
same,Nucleus peptide,Alpl (mouse),5 peptides
same,Nucleus spectra,Alpl (mouse),10 spectra
same,Nucleus peptide,Rcc1 (mouse),3 peptides
same,Nucleus spectra,Rcc1 (mouse),6 spectra
same,Nucleus peptide,Mcm3 (mouse),5 peptides
same,Nucleus spectra,Mcm3 (mouse),7 spectra
same,Nucleus peptide,Rfc2 (mouse),0 peptides
same,Nucleus spectra,Rfc2 (mouse),0 spectra
same,Nucleus peptide,Zfp655 (mouse),0 peptides
same,Nucleus spectra,Zfp655 (mouse),0 spectra
same,Nucleus peptide,Peg10 (mouse),2 peptides
same,Nucleus spectra,Peg10 (mouse),2 spectra
same,Nucleus peptide,Col18a1 (mouse),1 peptides
same,Nucleus spectra,Col18a1 (mouse),1 spectra
same,Nucleus peptide,Ctbp2 (mouse),2 peptides
same,Nucleus spectra,Ctbp2 (mouse),4 spectra
same,Nucleus peptide,Nup214 (mouse),7 peptides
same,Nucleus spectra,Nup214 (mouse),11 spectra
same,Nucleus peptide,Spna2 (mouse),5 peptides
same,Nucleus spectra,Spna2 (mouse),9 spectra
same,Nucleus peptide,Utf1 (mouse),4 peptides
same,Nucleus spectra,Utf1 (mouse),6 spectra
same,Nucleus peptide,Ywhaz (mouse),1 peptides
same,Nucleus spectra,Ywhaz (mouse),6 spectra
same,Nucleus peptide,Dnajb6 (mouse),1 peptides
same,Nucleus spectra,Dnajb6 (mouse),2 spectra
same,Nucleus peptide,Tmem48 (mouse),1 peptides
same,Nucleus spectra,Tmem48 (mouse),1 spectra
same,Nucleus peptide,Dnaja3 (mouse),1 peptides
same,Nucleus spectra,Dnaja3 (mouse),2 spectra
same,Nucleus peptide,Pcnt (mouse),0 peptides
same,Nucleus spectra,Pcnt (mouse),0 spectra
same,Nucleus peptide,Rangap1 (mouse),0 peptides
same,Nucleus spectra,Rangap1 (mouse),0 spectra
same,Nucleus peptide,Kars (mouse),0 peptides
same,Nucleus spectra,Kars (mouse),0 spectra
same,Nucleus peptide,Tubb6 (mouse),1 peptides
same,Nucleus spectra,Tubb6 (mouse),1 spectra
same,Nucleus peptide,Copa (mouse),1 peptides
same,Nucleus spectra,Copa (mouse),4 spectra
same,Nucleus peptide,Nup160 (mouse),6 peptides
same,Nucleus spectra,Nup160 (mouse),11 spectra
same,Nucleus peptide,Uba1 (mouse),3 peptides
same,Nucleus spectra,Uba1 (mouse),5 spectra
same,Nucleus peptide,Ruvbl1 (mouse),9 peptides
same,Nucleus spectra,Ruvbl1 (mouse),17 spectra
same,Nucleus peptide,Lmnb2 (mouse),3 peptides
same,Nucleus spectra,Lmnb2 (mouse),5 spectra
same,Nucleus peptide,Hdlbp (mouse),1 peptides
same,Nucleus spectra,Hdlbp (mouse),1 spectra
same,Nucleus peptide,Cbx5 (mouse),2 peptides
same,Nucleus spectra,Cbx5 (mouse),3 spectra
same,Nucleus peptide,Psmc5 (mouse),0 peptides
same,Nucleus spectra,Psmc5 (mouse),0 spectra
same,Nucleus peptide,Rfc5 (mouse),0 peptides
same,Nucleus spectra,Rfc5 (mouse),0 spectra
same,Nucleus peptide,Cul4b (mouse),0 peptides
same,Nucleus spectra,Cul4b (mouse),0 spectra
same,Nucleus peptide,Tex10 (mouse),1 peptides
same,Nucleus spectra,Tex10 (mouse),3 spectra
same,Nucleus peptide,Ywhab (mouse),0 peptides
same,Nucleus spectra,Ywhab (mouse),0 spectra
same,Nucleus peptide,Cnot1 (mouse),3 peptides
same,Nucleus spectra,Cnot1 (mouse),4 spectra
same,Nucleus peptide,Pfn1 (mouse),4 peptides
same,Nucleus spectra,Pfn1 (mouse),9 spectra
same,Nucleus peptide,Ncapg (mouse),0 peptides
same,Nucleus spectra,Ncapg (mouse),0 spectra
same,Nucleus peptide,Gart (mouse),2 peptides
same,Nucleus spectra,Gart (mouse),3 spectra
human AID containing two tandem Flag tags (Flag-human AID) (from UniProt Q9GZX7 1-198) (enzyme),Nucleus peptide,Ywhae (mouse),3 peptides
same,Nucleus spectra,Ywhae (mouse),6 spectra
same,Nucleus peptide,Smarcad1 (mouse),5 peptides
same,Nucleus spectra,Smarcad1 (mouse),8 spectra
same,Nucleus peptide,Hspa5 (mouse),13 peptides
same,Nucleus spectra,Hspa5 (mouse),30 spectra
same,Nucleus peptide,Akap8 (mouse),4 peptides
same,Nucleus spectra,Akap8 (mouse),12 spectra
same,Nucleus peptide,Mcm4 (mouse),6 peptides
same,Nucleus spectra,Mcm4 (mouse),13 spectra
same,Nucleus peptide,Alpl (mouse),12 peptides
same,Nucleus spectra,Alpl (mouse),25 spectra
same,Nucleus peptide,Rcc1 (mouse),7 peptides
same,Nucleus spectra,Rcc1 (mouse),16 spectra
same,Nucleus peptide,Mcm3 (mouse),9 peptides
same,Nucleus spectra,Mcm3 (mouse),22 spectra
same,Nucleus peptide,Rfc2 (mouse),3 peptides
same,Nucleus spectra,Rfc2 (mouse),8 spectra
same,Nucleus peptide,Zfp655 (mouse),4 peptides
same,Nucleus spectra,Zfp655 (mouse),9 spectra
same,Nucleus peptide,Peg10 (mouse),3 peptides
same,Nucleus spectra,Peg10 (mouse),5 spectra
same,Nucleus peptide,Col18a1 (mouse),4 peptides
same,Nucleus spectra,Col18a1 (mouse),5 spectra
same,Nucleus peptide,Ctbp2 (mouse),4 peptides
same,Nucleus spectra,Ctbp2 (mouse),9 spectra
same,Nucleus peptide,Nup214 (mouse),13 peptides
same,Nucleus spectra,Nup214 (mouse),29 spectra
same,Nucleus peptide,Spna2 (mouse),14 peptides
same,Nucleus spectra,Spna2 (mouse),28 spectra
same,Nucleus peptide,Utf1 (mouse),7 peptides
same,Nucleus spectra,Utf1 (mouse),16 spectra
same,Nucleus peptide,Ywhaz (mouse),6 peptides
same,Nucleus spectra,Ywhaz (mouse),17 spectra
same,Nucleus peptide,Dnajb6 (mouse),5 peptides
same,Nucleus spectra,Dnajb6 (mouse),17 spectra
same,Nucleus peptide,Tmem48 (mouse),3 peptides
same,Nucleus spectra,Tmem48 (mouse),4 spectra
same,Nucleus peptide,Dnaja3 (mouse),7 peptides
same,Nucleus spectra,Dnaja3 (mouse),28 spectra
same,Nucleus peptide,Pcnt (mouse),5 peptides
same,Nucleus spectra,Pcnt (mouse),6 spectra
same,Nucleus peptide,Rangap1 (mouse),10 peptides
same,Nucleus spectra,Rangap1 (mouse),29 spectra
same,Nucleus peptide,Kars (mouse),6 peptides
same,Nucleus spectra,Kars (mouse),9 spectra
same,Nucleus peptide,Tubb6 (mouse),3 peptides
same,Nucleus spectra,Tubb6 (mouse),5 spectra
same,Nucleus peptide,Copa (mouse),5 peptides
same,Nucleus spectra,Copa (mouse),9 spectra
same,Nucleus peptide,Nup160 (mouse),12 peptides
same,Nucleus spectra,Nup160 (mouse),24 spectra
same,Nucleus peptide,Uba1 (mouse),10 peptides
same,Nucleus spectra,Uba1 (mouse),18 spectra
same,Nucleus peptide,Ruvbl1 (mouse),13 peptides
same,Nucleus spectra,Ruvbl1 (mouse),37 spectra
same,Nucleus peptide,Lmnb2 (mouse),10 peptides
same,Nucleus spectra,Lmnb2 (mouse),27 spectra
same,Nucleus peptide,Hdlbp (mouse),3 peptides
same,Nucleus spectra,Hdlbp (mouse),5 spectra
same,Nucleus peptide,Cbx5 (mouse),4 peptides
same,Nucleus spectra,Cbx5 (mouse),12 spectra
same,Nucleus peptide,Psmc5 (mouse),5 peptides
same,Nucleus spectra,Psmc5 (mouse),8 spectra
same,Nucleus peptide,Rfc5 (mouse),3 peptides
same,Nucleus spectra,Rfc5 (mouse),5 spectra
same,Nucleus peptide,Cul4b (mouse),4 peptides
same,Nucleus spectra,Cul4b (mouse),7 spectra
same,Nucleus peptide,Tex10 (mouse),6 peptides
same,Nucleus spectra,Tex10 (mouse),12 spectra
same,Nucleus peptide,Ywhab (mouse),3 peptides
same,Nucleus spectra,Ywhab (mouse),7 spectra
same,Nucleus peptide,Cnot1 (mouse),6 peptides
same,Nucleus spectra,Cnot1 (mouse),11 spectra
same,Nucleus peptide,Pfn1 (mouse),5 peptides
same,Nucleus spectra,Pfn1 (mouse),21 spectra
same,Nucleus peptide,Ncapg (mouse),4 peptides
same,Nucleus spectra,Ncapg (mouse),9 spectra
same,Nucleus peptide,Gart (mouse),5 peptides
same,Nucleus spectra,Gart (mouse),7 spectra
